In patent publication US12559740B2, “Process for the direct enzymatic conversion of amino sugars; enzyme and compositions for use in the process” (GLYCOMICS AND GLYCAN BIOENGINEERING RESEARCH CENTER …, priority 2021, dated 2026):

Tested on: N[C@H]1C(O)O[C@H](CO)[C@@H](O)[C@@H]1O
Assay: Kinetic analysis of Ef-GPDA with glucosamine (conversion of glucosamine to fructose, photometric at 505 nm after resorcinol derivatization)
Format: biochemical, Enterococcus faecalis
Settings: other: substrate glucosamine (3 to 140 mM solutions, 30 μL), MES buffer pH 7.0, MgCl2, 40° C., 10 h
Description: Reaction mixtures (50 μL) were centrifuged at 12000 g for 10 min at room temperature, and 40 μL samples of the supernatant were taken and mixed with 35 μL conc. HCl and 5 μL of resorcinol-thiourea reagent (consisting of 0.1% (w/V) resorcinol and 0.25% (w/V) in glacial acetic acid). The mixed samples were incubated at 80° C. for 10 min and then centrifuged at 12000 g for 10 min at room temperature. The supernatants (50 μL) were then transferred to 96 microplate and the absorbance at λ=505 nm measured with a microplate photometer (Thermo Multiskan).
Genes encoding the wild-type or mutant variants of GDPA were synthesized in an E. coli codon-optimized form (Genscript) and delivered in a pUC19 vector with ampicillin resistance. The protein-encoding insert was cut via Ndel and Xhol restriction enzymes (Takara) and ligated in a pET30a expression vector via T4 Ligase (Takara). The GPDA enzymes were prepared as follows: a fresh single colony from an LB agar plate supplemented with […] Kanamycin and used to grow E. coli strain BL21 comprising the respective plasmid was used to inoculate 5 mL of LB liquid medium with the same concentration of Kanamycin. Following incubation of said culture over night at 120 rpm and 37° C. 2 mL of the overnight culture was used to inoculate 400 mL of the same medium in a 2 L flask. […]

With “Ef-GPDA, glucosamine-6-phosphate deaminase from Enterococcus faecalis, wild type, SEQ ID NO: 1 (Enterococcus faecalis V583)” the Km was 21.8 ± 2.3 mM and the Vmax was 4.0 ± 0.2 µmol/min.
